Reduction of co-precipitated Arr1 after light or phorbol ester against dark data for one substance are collected here from article PMC3819411.

The target of this test is Bardet-Biedl syndrome 5 protein (BBS5), endogenous in bovine rod outer segments (bovine (endogenous in rod outer segments)). The test is described as follows: co-IP.

The substance “arrestin1 (Arr1), endogenous in bovine rod outer segments (from UniProt P08168 1-404) (natural protein)” gave a reduction of co-precipitated Arr1 after light or phorbol ester against dark of 50%.
